In publication doi:10.1101/2023.12.19.572309 (bioRxiv, 2023):

Molecular target: ATG16L1-(StrepII^2x)ATG5–ATG12 complex (UniProt Q676U5;Q9H1Y0;O94817)
Assay: BLI

ATG16L1-(StrepII^2x)ATG5–ATG12 complex, sequence (Q676U5 whole entry, chain 1 of 3): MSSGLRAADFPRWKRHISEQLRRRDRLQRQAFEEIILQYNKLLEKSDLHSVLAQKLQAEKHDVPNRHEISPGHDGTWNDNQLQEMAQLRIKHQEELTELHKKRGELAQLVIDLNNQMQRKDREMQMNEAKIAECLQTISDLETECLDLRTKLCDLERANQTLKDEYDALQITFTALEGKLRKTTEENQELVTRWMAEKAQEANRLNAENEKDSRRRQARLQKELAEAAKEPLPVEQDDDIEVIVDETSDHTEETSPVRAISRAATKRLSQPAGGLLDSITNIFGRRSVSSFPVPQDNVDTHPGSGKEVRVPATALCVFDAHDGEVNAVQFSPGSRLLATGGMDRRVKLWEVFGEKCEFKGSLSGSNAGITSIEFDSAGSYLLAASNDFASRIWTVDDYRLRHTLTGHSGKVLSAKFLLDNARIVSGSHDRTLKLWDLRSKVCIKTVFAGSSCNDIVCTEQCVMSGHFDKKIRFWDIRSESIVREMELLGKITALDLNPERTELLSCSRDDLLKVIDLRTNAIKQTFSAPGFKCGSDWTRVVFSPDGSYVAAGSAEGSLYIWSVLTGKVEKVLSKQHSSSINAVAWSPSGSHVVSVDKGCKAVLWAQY
ATG16L1-(StrepII^2x)ATG5–ATG12 complex, sequence (Q9H1Y0 whole entry, chain 2 of 3): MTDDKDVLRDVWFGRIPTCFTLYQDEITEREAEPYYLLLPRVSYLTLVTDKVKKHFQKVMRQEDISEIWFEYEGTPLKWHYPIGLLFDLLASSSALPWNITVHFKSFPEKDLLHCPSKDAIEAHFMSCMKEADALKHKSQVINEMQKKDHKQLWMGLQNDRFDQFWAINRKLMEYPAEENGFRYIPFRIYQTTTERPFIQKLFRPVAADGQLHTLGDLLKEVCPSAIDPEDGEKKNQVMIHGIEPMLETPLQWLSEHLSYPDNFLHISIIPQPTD
ATG16L1-(StrepII^2x)ATG5–ATG12 complex, sequence (O94817 whole entry, chain 3 of 3): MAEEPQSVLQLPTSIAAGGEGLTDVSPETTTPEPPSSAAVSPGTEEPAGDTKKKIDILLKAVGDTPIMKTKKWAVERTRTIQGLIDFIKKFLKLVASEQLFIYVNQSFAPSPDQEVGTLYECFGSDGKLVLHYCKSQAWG

B1: 6xHis-3xFLAG-V1H(1-351) (domain or fragment)
chain: MTKMDIRGAVDAAVPTNIIAAKAAEVRANKVNWQSYLQGQMISAEDCEFIQRFEMKRSPEEKQEMLQTEGSQCAKTFINLMTHICKEQTVQYILTMVDDMLQENHQRVSIFFDYARCSKNTAWPYFLPMLNRQDPFTVHMAARIIAKLAAWGKELMEGSDLNYYFNWIKTQLSSQKLRGSGVAVETGTVSSSDSSQYVQCVAGCLQLMLRVNEYRFAWVEADGVNCIMGVLSNKCGFQLQYQMIFSIWLLAFSPQMCEHLRRYNIIPVLSDILQESVKEKVTRIILAAFRNFLEKSTERETRQEYALAMIQCKVLKQLENLEQQKYDDEDISEDIKFLLEKLGESVQDLSS
Kd: 9.2 µM
